According to paper PMC11963670:

Key:
[1] = molecular target: RHDV GI.1b P domain of VP60, MBP fusion (rabbit hemorrhagic disease virus GI.1b (isolate RHDV-Ast89)); test: native gel or EMSA; nondenaturing PAGE of the MBP-P domain fusions, western blot with an anti-His tag monoclonal antibody; monomer band (calculated 85 kDa) and a slower band of the dimer
[2] = molecular target: RHDV GI.2 P domain loop-swap mutant L1´ (loop 1 of GI.1b), His-tagged MBP fusion (rabbit hemorrhagic disease virus GI.2 (isolate N-11)); test: as above
[3] = molecular target: RHDV GI.2 P domain loop-swap mutant L1´L4´ (loops 1 and 4 of GI.1b), His-tagged MBP fusion (rabbit hemorrhagic disease virus GI.2 (isolate N-11)); test: as above
[4] = molecular target: RHDV GI.2 P domain loop-swap mutant L1´L4´L5´ (loops 1, 4 and 5 of GI.1b), His-tagged MBP fusion (rabbit hemorrhagic disease virus GI.2 (isolate N-11)); test: as above
[5] = molecular target: RHDV GI.2 P domain loop-swap mutant L2´ (loop 2 of GI.1b), His-tagged MBP fusion (rabbit hemorrhagic disease virus GI.2 (isolate N-11)); test: as above
[6] = molecular target: RHDV GI.2 P domain loop-swap mutant L3´ (loop 3 of GI.1b), His-tagged MBP fusion (rabbit hemorrhagic disease virus GI.2 (isolate N-11)); test: as above
[7] = molecular target: RHDV GI.2 P domain loop-swap mutant L4´ (loop 4 of GI.1b), His-tagged MBP fusion (rabbit hemorrhagic disease virus GI.2 (isolate N-11)); test: as above
[8] = molecular target: RHDV GI.2 P domain loop-swap mutant L4´L5´ (loops 4 and 5 of GI.1b), His-tagged MBP fusion (rabbit hemorrhagic disease virus GI.2 (isolate N-11)); test: as above
[9] = molecular target: RHDV GI.2 P domain loop-swap mutant L5´ (loop 5 of GI.1b), His-tagged MBP fusion (rabbit hemorrhagic disease virus GI.2 (isolate N-11)); test: as above
[10] = molecular target: RHDV GI.2 P domain mutant N387A, MBP fusion (rabbit hemorrhagic disease virus GI.2 (isolate N-11)); test: native gel or EMSA; PAGE under denaturing or native conditions of the MBP-P domain point mutants; monomer and homodimer bands; BSA as negative control
[11] = molecular target: RHDV GI.2 P domain mutant N387D, MBP fusion (rabbit hemorrhagic disease virus GI.2 (isolate N-11)); test: as above
[12] = molecular target: RHDV GI.2 wild-type P domain of VP60 (isolate N-11), His-tagged MBP fusion (rabbit hemorrhagic disease virus GI.2 (isolate N-11)); test: native gel or EMSA; nondenaturing PAGE of the MBP-P domain fusions, western blot with an anti-His tag monoclonal antibody; monomer band (calculated 85 kDa) and a slower band of the dimer

With “RHDV GI.1b P domain of VP60, MBP fusion (domain or fragment)” the stoichiometry N [1] was 2.
Work on “RHDV GI.2 P domain loop-swap mutant L1´ (loop 1 of GI.1b), His-tagged MBP fusion (domain or fragment)” yielded a stoichiometry N [2] of 2.
“RHDV GI.2 P domain loop-swap mutant L1´L4´ (loops 1 and 4 of GI.1b), His-tagged MBP fusion (domain or fragment)” showed a stoichiometry N [3] of 2.
In the case of “RHDV GI.2 P domain loop-swap mutant L1´L4´L5´ (loops 1, 4 and 5 of GI.1b), His-tagged MBP fusion (domain or fragment)”, the stoichiometry N [4] was 2.
“RHDV GI.2 P domain loop-swap mutant L2´ (loop 2 of GI.1b), His-tagged MBP fusion (domain or fragment)” was tested, and the stoichiometry N [5] was 2.
“RHDV GI.2 P domain loop-swap mutant L3´ (loop 3 of GI.1b), His-tagged MBP fusion (domain or fragment)” gave a stoichiometry N [6] of 2.
For “RHDV GI.2 P domain loop-swap mutant L4´ (loop 4 of GI.1b), His-tagged MBP fusion (domain or fragment)”, the stoichiometry N [7] was 2.
“RHDV GI.2 P domain loop-swap mutant L4´L5´ (loops 4 and 5 of GI.1b), His-tagged MBP fusion (domain or fragment)” gave a stoichiometry N [8] of 2.
In the case of “RHDV GI.2 P domain loop-swap mutant L5´ (loop 5 of GI.1b), His-tagged MBP fusion (domain or fragment)”, the stoichiometry N [9] was 2.
“RHDV GI.2 P domain mutant N387A, MBP fusion (domain or fragment)” gave a stoichiometry N [10] of 2.
In the case of “RHDV GI.2 P domain mutant N387D, MBP fusion (domain or fragment)”, the stoichiometry N [11] was 2.
In the case of “RHDV GI.2 wild-type P domain of VP60 (isolate N-11), His-tagged MBP fusion (domain or fragment)”, the stoichiometry N [12] was 2.
